Reference: patent US6548290 (Harvard, dated 2003)

Experiments:
[1] = test system: T1, Xenopus Geminin-H, translated in vitro
T1 sequence: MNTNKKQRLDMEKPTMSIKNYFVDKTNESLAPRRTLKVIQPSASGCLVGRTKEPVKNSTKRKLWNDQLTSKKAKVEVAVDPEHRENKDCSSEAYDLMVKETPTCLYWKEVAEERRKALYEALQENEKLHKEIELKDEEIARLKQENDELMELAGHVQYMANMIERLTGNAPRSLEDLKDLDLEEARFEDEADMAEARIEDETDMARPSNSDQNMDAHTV

[2] = test system: T2, geminin^DEL (geminin H with the nine amino acids of the destruction box RRTLKVIQP, 33-41, removed), translated in vitro
T2 sequence: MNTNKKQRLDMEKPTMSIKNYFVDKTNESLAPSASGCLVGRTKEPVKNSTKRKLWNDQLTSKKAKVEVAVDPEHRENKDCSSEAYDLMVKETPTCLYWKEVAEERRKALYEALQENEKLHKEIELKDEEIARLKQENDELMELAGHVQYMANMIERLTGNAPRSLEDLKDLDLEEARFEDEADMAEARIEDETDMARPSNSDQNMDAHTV

Xmcm3 = molecular target: T3, Xmcm3 (Xenopus, UniProt P49739 1-807); test: co-immunoprecipitation (preliminary experiments)
T3 sequence (looked up): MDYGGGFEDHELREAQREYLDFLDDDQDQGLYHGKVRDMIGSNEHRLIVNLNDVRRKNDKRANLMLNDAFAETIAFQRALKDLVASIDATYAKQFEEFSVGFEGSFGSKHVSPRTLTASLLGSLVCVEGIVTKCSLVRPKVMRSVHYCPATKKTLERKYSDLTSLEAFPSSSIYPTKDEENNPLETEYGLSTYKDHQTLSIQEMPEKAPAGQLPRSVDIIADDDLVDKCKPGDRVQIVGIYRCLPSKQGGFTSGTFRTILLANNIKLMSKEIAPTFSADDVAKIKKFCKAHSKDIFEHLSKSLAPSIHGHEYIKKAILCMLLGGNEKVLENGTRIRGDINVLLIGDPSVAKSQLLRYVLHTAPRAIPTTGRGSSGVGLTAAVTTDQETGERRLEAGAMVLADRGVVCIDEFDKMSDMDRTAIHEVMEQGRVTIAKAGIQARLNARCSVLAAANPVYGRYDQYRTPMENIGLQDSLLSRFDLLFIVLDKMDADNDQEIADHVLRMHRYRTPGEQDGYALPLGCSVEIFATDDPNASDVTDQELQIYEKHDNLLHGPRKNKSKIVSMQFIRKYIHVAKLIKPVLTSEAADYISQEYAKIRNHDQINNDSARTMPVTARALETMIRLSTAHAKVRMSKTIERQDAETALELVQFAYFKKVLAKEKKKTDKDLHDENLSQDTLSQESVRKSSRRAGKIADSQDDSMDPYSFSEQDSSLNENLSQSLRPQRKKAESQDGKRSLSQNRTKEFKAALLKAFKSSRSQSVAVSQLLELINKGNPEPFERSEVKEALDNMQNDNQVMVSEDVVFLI

Xorc2 = molecular target: T4, Xorc2 (Xenopus, UniProt Q91628 1-558); test: co-immunoprecipitation (preliminary experiments)
T4 sequence (looked up): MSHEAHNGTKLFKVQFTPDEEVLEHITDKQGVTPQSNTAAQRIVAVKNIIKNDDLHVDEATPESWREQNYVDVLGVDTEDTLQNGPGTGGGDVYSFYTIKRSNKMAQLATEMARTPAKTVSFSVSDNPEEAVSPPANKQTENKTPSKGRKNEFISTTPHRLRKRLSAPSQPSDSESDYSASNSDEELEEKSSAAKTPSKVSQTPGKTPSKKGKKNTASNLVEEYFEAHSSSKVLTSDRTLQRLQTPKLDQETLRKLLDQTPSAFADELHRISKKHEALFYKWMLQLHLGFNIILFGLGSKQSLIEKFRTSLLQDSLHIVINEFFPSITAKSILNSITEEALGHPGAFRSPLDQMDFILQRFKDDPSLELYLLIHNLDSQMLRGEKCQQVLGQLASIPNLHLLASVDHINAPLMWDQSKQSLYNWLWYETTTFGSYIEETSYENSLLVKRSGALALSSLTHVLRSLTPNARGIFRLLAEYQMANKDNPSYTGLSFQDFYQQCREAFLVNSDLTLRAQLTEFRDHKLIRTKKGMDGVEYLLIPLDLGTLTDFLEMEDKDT

“interphase APC (immunoprecipitated from interphase Xenopus egg extract)” was tested, and the “ubiquitin conjugates (ladder on autoradiogram) in a reconstituted ubiquitination reaction” value (from here on “ubiquitin conjugates”) [1] was “The ladder did not appear ... if the APC was immunoprecipitated from interphase extracts (lane 7)”.

For “mitotic anaphase promoting complex (APC) of Xenopus mitotic egg extract”, the “ubiquitin conjugates” value [2] was “The ladder did not appear if the destruction box mutant geminin^DEL was used as the substrate” and the “ubiquitin conjugates” value [1] was “a characteristic ladder of ubiquitin conjugates appeared above the starting material”.

B1: geminin (Xenopus; as used in the co-immunoprecipitation experiments) (other)
chain: MNTNKKQRLDMEKPTMSIKNYFVDKTNESLAPRRTLKVIQPSASGCLVGRTKEPVKNSTKRKLWNDQLTSKKAKVEVAVDPEHRENKDCSSEAYDLMVKETPTCLYWKEVAEERRKALYEALQENEKLHKEIELKDEEIARLKQENDELMELAGHVQYMANMIERLTGNAPRSLEDLKDLDLEEARFEDEADMAEARIEDETDMARPSNSDQNMDAHTV
B1: no binding (Xmcm3); no binding (Xorc2).
